Experimental data published in the supplement of paper PMC9112550, “Optimization of the antimicrobial peptide Bac7 by deep mutational scanning” (BMC Biology, 2022).

System: Escherichia coli TOP10
Experiment: shrunken log2 fold change of peptide-encoding DNA abundance (4.5 h post-induction vs induction); higher = less antimicrobial activity (less host growth inhibition)
Conditions: time post-induction: 4.5 h; library: site-saturation at positions 5, 18, 19, 20
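Note: peptides expressed intracellularly from a pBAD plasmid library in pooled LB shake-flask culture, induced with 0.3% L-arabinose, DNA abundance read by NGS, three biological replicates, DESeq2 with apeglm shrinkage.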

Sequence | shrunken log2 fold change
RRIRNRPPRLPRPRPRPHSHPRP | -0.472
RRIRNRPPRLPRPRPRPHSIPRP | -0.209
RRIRNRPPRLPRPRPRPHSMPRP | -0.027
RRIRNRPPRLPRPRPRPHTGPRP | -0.313
RRIRNRPPRLPRPRPRPHTSPRP | -0.268
RRIRNRPPRLPRPRPRPHTTPRP | -0.235
RRIRNRPPRLPRPRPRPHTWPRP | -0.296
RRIRNRPPRLPRPRPRPHVPPRP | -0.528
RRIRNRPPRLPRPRPRPHYYPRP | -0.356
RRIRNRPPRLPRPRPRPIALPRP | -0.0133
RRIRNRPPRLPRPRPRPICIPRP | -0.531
RRIRNRPPRLPRPRPRPIDFPRP | -0.413
RRIRNRPPRLPRPRPRPIEGPRP | -0.0908
RRIRNRPPRLPRPRPRPIENPRP | 0.0211
RRIRNRPPRLPRPRPRPIESPRP | -0.00107
RRIRNRPPRLPRPRPRPIFEPRP | 0.0552
RRIRNRPPRLPRPRPRPIFNPRP | -0.302
RRIRNRPPRLPRPRPRPIGPPRP | -0.181
RRIRNRPPRLPRPRPRPIGSPRP | -0.00277
RRIRNRPPRLPRPRPRPIHWPRP | 0.0944
RRIRNRPPRLPRPRPRPIICPRP | -0.0922
RRIRNRPPRLPRPRPRPIKHPRP | -0.724
RRIRNRPPRLPRPRPRPIMFPRP | -0.0388
RRIRNRPPRLPRPRPRPIMLPRP | -0.482
RRIRNRPPRLPRPRPRPIMQPRP | -0.0584

Sequence | shrunken log2 fold change
RRIRNRPPRLPRPRPRPINPPRP | -0.796
RRIRNRPPRLPRPRPRPIQPPRP | -0.213
RRIRNRPPRLPRPRPRPISLPRP | -0.0292
RRIRNRPPRLPRPRPRPITDPRP | -1.28
RRIRNRPPRLPRPRPRPIVSPRP | -0.00673
RRIRNRPPRLPRPRPRPIWGPRP | -0.0075
RRIRNRPPRLPRPRPRPIWSPRP | 0.0615
RRIRNRPPRLPRPRPRPIYNPRP | -0.642
RRIRNRPPRLPRPRPRPIYSPRP | -0.0185
RRIRNRPPRLPRPRPRPKADPRP | -0.0273
RRIRNRPPRLPRPRPRPKAKPRP | 0.146
RRIRNRPPRLPRPRPRPKANPRP | 0.177
RRIRNRPPRLPRPRPRPKCVPRP | -0.0346
RRIRNRPPRLPRPRPRPKCYPRP | -0.0478
RRIRNRPPRLPRPRPRPKDCPRP | -0.0418
RRIRNRPPRLPRPRPRPKDDPRP | 0.0456
RRIRNRPPRLPRPRPRPKDIPRP | 0.0127
RRIRNRPPRLPRPRPRPKEHPRP | -0.0991
RRIRNRPPRLPRPRPRPKEKPRP | -0.016
RRIRNRPPRLPRPRPRPKENPRP | -0.409
RRIRNRPPRLPRPRPRPKFNPRP | -0.569
RRIRNRPPRLPRPRPRPKLIPRP | -0.0332
RRIRNRPPRLPRPRPRPKLPPRP | 0.0992
RRIRNRPPRLPRPRPRPKLQPRP | 0.114
RRIRNRPPRLPRPRPRPKMIPRP | -0.495

Sequence | shrunken log2 fold change
RRIRNRPPRLPRPRPRPKNMPRP | -0.189
RRIRNRPPRLPRPRPRPKNWPRP | 0.168
RRIRNRPPRLPRPRPRPKPNPRP | 0.513
RRIRNRPPRLPRPRPRPKPRPRP | 0.83
RRIRNRPPRLPRPRPRPKQAPRP | -0.00865
RRIRNRPPRLPRPRPRPKQHPRP | -0.253
RRIRNRPPRLPRPRPRPKSMPRP | 0.0478
RRIRNRPPRLPRPRPRPKSWPRP | 0.432
RRIRNRPPRLPRPRPRPKTFPRP | -0.399
RRIRNRPPRLPRPRPRPKTNPRP | 0.0551
RRIRNRPPRLPRPRPRPLDFPRP | -0.386
RRIRNRPPRLPRPRPRPLEHPRP | -0.0225
RRIRNRPPRLPRPRPRPLFAPRP | 0.0932
RRIRNRPPRLPRPRPRPLFCPRP | -0.495
RRIRNRPPRLPRPRPRPLFNPRP | -0.777
RRIRNRPPRLPRPRPRPLFVPRP | -0.495
RRIRNRPPRLPRPRPRPLFWPRP | 0.0854
RRIRNRPPRLPRPRPRPLHFPRP | -0.563
RRIRNRPPRLPRPRPRPLHNPRP | -0.503
RRIRNRPPRLPRPRPRPLKNPRP | -0.234
RRIRNRPPRLPRPRPRPLKWPRP | 0.0542
RRIRNRPPRLPRPRPRPLKYPRP | -0.0547
RRIRNRPPRLPRPRPRPLLLPRP | -0.25
RRIRNRPPRLPRPRPRPLLQPRP | -0.137
RRIRNRPPRLPRPRPRPLMHPRP | -0.0721

Sequence | shrunken log2 fold change
RRIRNRPPRLPRPRPRPLMLPRP | -0.842
RRIRNRPPRLPRPRPRPLNLPRP | -0.25
RRIRNRPPRLPRPRPRPLNTPRP | -0.413
RRIRNRPPRLPRPRPRPLPCPRP | -0.207
RRIRNRPPRLPRPRPRPLPEPRP | -0.00875
RRIRNRPPRLPRPRPRPLQIPRP | -0.143
RRIRNRPPRLPRPRPRPLQTPRP | -0.0644
RRIRNRPPRLPRPRPRPLRNPRP | 0.267
RRIRNRPPRLPRPRPRPLRTPRP | 0.717
RRIRNRPPRLPRPRPRPLRVPRP | 0.896
RRIRNRPPRLPRPRPRPLSQPRP | -0.00581
RRIRNRPPRLPRPRPRPLTEPRP | 0.284
RRIRNRPPRLPRPRPRPLVCPRP | -0.201
RRIRNRPPRLPRPRPRPLYMPRP | -0.308
RRIRNRPPRLPRPRPRPLYRPRP | -0.332
RRIRNRPPRLPRPRPRPLYTPRP | -0.269
RRIRNRPPRLPRPRPRPMAAPRP | 0.582
RRIRNRPPRLPRPRPRPMCNPRP | -0.0631
RRIRNRPPRLPRPRPRPMCYPRP | -0.0198
RRIRNRPPRLPRPRPRPMDNPRP | -0.105
RRIRNRPPRLPRPRPRPMEHPRP | 0.0201
RRIRNRPPRLPRPRPRPMFCPRP | 0.0294
RRIRNRPPRLPRPRPRPMGYPRP | -0.00459
RRIRNRPPRLPRPRPRPMIGPRP | -0.536
RRIRNRPPRLPRPRPRPMMWPRP | -0.0283

Sequence | shrunken log2 fold change
RRIRNRPPRLPRPRPRPMNRPRP | -0.00285
RRIRNRPPRLPRPRPRPMPCPRP | 0.05
RRIRNRPPRLPRPRPRPMPPPRP | 0.208
RRIRNRPPRLPRPRPRPMPSPRP | 0.0832
RRIRNRPPRLPRPRPRPMQCPRP | 0.0637
RRIRNRPPRLPRPRPRPMSIPRP | 0.00262
RRIRNRPPRLPRPRPRPMSTPRP | -0.0292
RRIRNRPPRLPRPRPRPMTMPRP | 0.0125
RRIRNRPPRLPRPRPRPMTTPRP | -0.174
RRIRNRPPRLPRPRPRPMVWPRP | -0.03
RRIRNRPPRLPRPRPRPMWGPRP | -0.018
RRIRNRPPRLPRPRPRPMYLPRP | -0.251
RRIRNRPPRLPRPRPRPNAIPRP | -0.0211
RRIRNRPPRLPRPRPRPNCEPRP | -0.185
RRIRNRPPRLPRPRPRPNDGPRP | -0.00674
RRIRNRPPRLPRPRPRPNDKPRP | -0.549
RRIRNRPPRLPRPRPRPNEFPRP | -0.692
RRIRNRPPRLPRPRPRPNFEPRP | -0.0924
RRIRNRPPRLPRPRPRPNFNPRP | -0.734
RRIRNRPPRLPRPRPRPNGGPRP | 0.153
RRIRNRPPRLPRPRPRPNHLPRP | -0.317
RRIRNRPPRLPRPRPRPNHWPRP | -0.125
RRIRNRPPRLPRPRPRPNIGPRP | -0.00968
RRIRNRPPRLPRPRPRPNIWPRP | -0.636
RRIRNRPPRLPRPRPRPNKYPRP | -0.774

Sequence | shrunken log2 fold change
RRIRNRPPRLPRPRPRPNMHPRP | -0.433
RRIRNRPPRLPRPRPRPNNKPRP | -0.63
RRIRNRPPRLPRPRPRPNQVPRP | -0.255
RRIRNRPPRLPRPRPRPNTTPRP | -0.209
RRIRNRPPRLPRPRPRPNTWPRP | -0.382
RRIRNRPPRLPRPRPRPNVIPRP | -0.261
RRIRNRPPRLPRPRPRPNVYPRP | -0.17
RRIRNRPPRLPRPRPRPNWDPRP | -0.163
RRIRNRPPRLPRPRPRPNWLPRP | 0.0494
RRIRNRPPRLPRPRPRPNWVPRP | 0.0876
RRIRNRPPRLPRPRPRPNYKPRP | -0.827
RRIRNRPPRLPRPRPRPPACPRP | 0.301
RRIRNRPPRLPRPRPRPPAEPRP | 0.256
RRIRNRPPRLPRPRPRPPCEPRP | 0.0665
RRIRNRPPRLPRPRPRPPCLPRP | -0.236
RRIRNRPPRLPRPRPRPPDAPRP | 0.0157
RRIRNRPPRLPRPRPRPPDNPRP | -0.146
RRIRNRPPRLPRPRPRPPDWPRP | 0.641
RRIRNRPPRLPRPRPRPPGQPRP | 0.0465
RRIRNRPPRLPRPRPRPPGWPRP | 1.24
RRIRNRPPRLPRPRPRPPHLPRP | 0.155
RRIRNRPPRLPRPRPRPPHPPRP | 0.292
RRIRNRPPRLPRPRPRPPIDPRP | -0.306
RRIRNRPPRLPRPRPRPPINPRP | -0.186
RRIRNRPPRLPRPRPRPPIQPRP | 0.0569
